The values that follow come from PMC5723433, “Identification and characterization of a novel zebrafish (Danio rerio) pentraxin–carbonic anhydrase” (PeerJ, 2017).

In data set [1] the target is zebrafish (Danio rerio) carbonic anhydrase VI-pentraxin (CA VI–PTX), recombinant (zebrafish (Danio rerio)). Nature of the data set: SEC + other: static and dynamic light scattering (LC-SLS-DLS); 50 ug protein injected on Superdex 200 5/150 in 50 mM NaH3PO4, 500 mM NaCl pH 8, 0.1 ml/min, 20 °C; MW from standard proteins (SEC) and from light-scattering intensity calibrated on monomeric BSA (SLS); Rh from DLS.

Data set [2] deals with the molecule itself. As to the kind of experiment: not stated; unpublished data, preliminary result; protein in solution.

For orientation: stoichiometry N means a count of units in the complex or per binding partner. For “zebrafish (Danio rerio) carbonic anhydrase VI-pentraxin (CA VI–PTX), recombinant (enzyme)”, the stoichiometry N in data set [1] is 5.

B1: human carbonic anhydrase VI (CA VI) (enzyme, UniProt P23280-1 18-308, looked up)
chain: QHVSDWTYSEGALDEAHWPQHYPACGGQRQSPINLQRTKVRYNPSLKGLNMTGYETQAGEFPMVNNGHTVQISLPSTMRMTVADGTVYIAQQMHFHWGGASSEISGSEHTVDGIRHVIEIHIVHYNSKYKSYDIAQDAPDGLAVLAAFVEVKNYPENTYYSNFISHLANIKYPGQRTTLTGLDVQDMLPRNLQHYYTYHGSLTTPPCTENVHWFVLADFVKLSRTQVWKLENSLLDHRNKTIHNDYRRTQPLNHRVVESNFPNQEYTLGSEFQFYLHKIEEILDYLRRALN
notes: carbonic anhydrase VI, human; Only an unpublished preliminary result is told (A. Yrjänäinen, 2017); also called human CA VI; gustin
Take B1: the “stoichiometry N” value in data set [2] is 2.
